± gives the standard deviation of the averaged measurements.
System: ATP
Test: switch fluorescence ratio, 500 uM ATP over buffer (Cy3 cluster intensity, sum of 5 cycles each) (fold (ratio)); higher = stronger signal-on switching upon ATP binding; sequences stand for … in TCGTCGGCAGCGTCAGATGTGTATAAGAGACAGTTTTTTTTTTTTTTTTTTTTTTTTT…TC
Conditions: aptamer strand: ATP DNA aptamer (quencher-CACCTGGGGGAGTATTGCGGAGGAAGG + anchor), 100 nM annealed; ATP concentration: 500 uM
Method in brief: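 Clusters carrying Cy3-labelled switching strands on a modified Illumina MiSeq flow-cell were annealed to 100 nM quencher-labelled ATP aptamer and imaged in selection buffer. They were imaged again after 15 min with 500 uM ATP at 22 °C, over five buffer/ATP cycles with NaOH stripping and re-annealing in between. For each cluster, the fluorescence ratio is the summed Cy3 intensity of the target cycles divided by that of the buffer cycles, averaged per switch-domain sequence. Clusters outside 100-1000 RFU were left out.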
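Note: ATP exposure 15 min at 22 °C before imaging.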

CTAGGATTGA
switch fluorescence ratio: 0.992 ± 0.041

CTAGGCTTTT
switch fluorescence ratio: 1.02 ± 0.079

CTAGGGAGAG
switch fluorescence ratio: 0.9912 ± 0.0069

CTAGGGGATT
switch fluorescence ratio: 1.02 ± 0.011

CTAGGGGCTG
switch fluorescence ratio: 0.946 ± 0.025

CTAGGGGGTA
switch fluorescence ratio: 0.971 ± 0.035

CTAGGGGGTG
switch fluorescence ratio: 1.03 ± 0.062

CTAGGGGTTC
switch fluorescence ratio: 1.01 ± 0.046

CTAGGGTTAT
switch fluorescence ratio: 1.006 ± 0.0025

CTAGGTGTGG
switch fluorescence ratio: 1.04 ± 0.057

CTAGTAGAAG
switch fluorescence ratio: 1.01 ± 0.016

CTAGTATGTT
switch fluorescence ratio: 0.979 ± 0.02

CTAGTCAAGA
switch fluorescence ratio: 1.027 ± 0.0066

CTAGTCAGGT
switch fluorescence ratio: 1.018 ± 0.0012

CTAGTCTTTT
switch fluorescence ratio: 0.982 ± 0.031

CTAGTTAGGC
switch fluorescence ratio: 0.9844 ± 0.0091

CTAGTTTGGA
switch fluorescence ratio: 1 ± 0.011

CTATAACGGG
switch fluorescence ratio: 0.981 ± 0.0067

CTATAAGTCT
switch fluorescence ratio: 1.022 ± 0.0033

CTATAATGTT
switch fluorescence ratio: 0.9949 ± 0.0059

CTATACGGGG
switch fluorescence ratio: 0.976 ± 0.025

CTATAGGAGA
switch fluorescence ratio: 1.01 ± 0.044

CTATATAAAT
switch fluorescence ratio: 0.997 ± 0.059

CTATATAGGT
switch fluorescence ratio: 1.014 ± 0.0069

CTATCCGGAC
switch fluorescence ratio: 1.25 ± 0.014

CTATCCTATA
switch fluorescence ratio: 0.988 ± 0.022

CTATCGGGTA
switch fluorescence ratio: 0.9966 ± 0.0097

CTATCTGTAG
switch fluorescence ratio: 0.994 ± 0.03

CTATGCAATT
switch fluorescence ratio: 3.33 ± 0.29

CTATGCGTTT
switch fluorescence ratio: 0.989 ± 0.025

CTATGGATAC
switch fluorescence ratio: 1.61 ± 0.18

CTATGGGGGT
switch fluorescence ratio: 0.997 ± 0.024

CTATGGGTCC
switch fluorescence ratio: 1.02 ± 0.026

CTATGTATGT
switch fluorescence ratio: 1.01 ± 0.022

CTATGTATTT
switch fluorescence ratio: 1.002 ± 0.0011

CTATGTGATT
switch fluorescence ratio: 1.025 ± 0.0017

CTATTGAAGT
switch fluorescence ratio: 0.9838 ± 0.0073

CTATTGGTTT
switch fluorescence ratio: 0.9746 ± 0.0021

CTATTGTGGA
switch fluorescence ratio: 0.999 ± 0.019

CTATTTTGGT
switch fluorescence ratio: 0.9784 ± 0.0079

CTCAAAAACA
switch fluorescence ratio: 1.02 ± 0.028

CTCAAGGGGC
switch fluorescence ratio: 1.14 ± 0.11

CTCAATACTT
switch fluorescence ratio: 1.786 ± 0.0034

CTCACCATGA
switch fluorescence ratio: 1.03 ± 0.035

CTCACTTGGG
switch fluorescence ratio: 1.024 ± 0.0012

CTCAGAATAG
switch fluorescence ratio: 1.37 ± 0.075

CTCAGAATAT
switch fluorescence ratio: 1.046 ± 0.0086

CTCAGAGTTT
switch fluorescence ratio: 1 ± 0.012

CTCAGGAGGG
switch fluorescence ratio: 0.997 ± 0.047

CTCAGGCAAT
switch fluorescence ratio: 2.61 ± 0.45

CTCAGGGGGT
switch fluorescence ratio: 0.9759 ± 0.007

CTCAGTAGTT
switch fluorescence ratio: 1.018 ± 0.0053

CTCAGTTTCT
switch fluorescence ratio: 1.02 ± 0.03

CTCATAACAG
switch fluorescence ratio: 0.996 ± 0.015

CTCATAATTT
switch fluorescence ratio: 0.993 ± 0.037

CTCATATAGA
switch fluorescence ratio: 0.991 ± 0.045

CTCATCGGTC
switch fluorescence ratio: 1.02 ± 0.035

CTCATCGTTC
switch fluorescence ratio: 0.99555 ± 0.00034

CTCCAAAGCG
switch fluorescence ratio: 1.19 ± 0.032

CTCCATCGGG
switch fluorescence ratio: 1.31 ± 0.033

CTCCCTTCGA
switch fluorescence ratio: 1.17 ± 0.036

CTCCGATGAT
switch fluorescence ratio: 3.03 ± 0.62

CTCCGTGGGA
switch fluorescence ratio: 1.9 ± 0.68

CTCCTACAGC
switch fluorescence ratio: 1.32 ± 0.2

CTCCTAGTTT
switch fluorescence ratio: 1.03 ± 0.02

CTCCTCTACC
switch fluorescence ratio: 1.64 ± 0.048

CTCCTTTTAT
switch fluorescence ratio: 1.03 ± 0.029

CTCGAAAAAA
switch fluorescence ratio: 1.05 ± 0.014

CTCGAAGCG
switch fluorescence ratio: 1.04 ± 0.034

CTCGACGGGG
switch fluorescence ratio: 0.975 ± 0.035

CTCGATTTAT
switch fluorescence ratio: 0.9951 ± 0.0086

CTCGCCGCGG
switch fluorescence ratio: 1.08 ± 0.038

CTCGCCGGGG
switch fluorescence ratio: 1.06 ± 0.013

CTCGCTGCGT
switch fluorescence ratio: 1.024 ± 0.0082

CTCGGCGCTT
switch fluorescence ratio: 1.05 ± 0.02

CTCGGCGGAG
switch fluorescence ratio: 1.026 ± 0.0082

CTCGGCTGGT
switch fluorescence ratio: 1.01 ± 0.019

CTCGGGGGAT
switch fluorescence ratio: 1.05 ± 0.1

CTCGGGGTGT
switch fluorescence ratio: 1.02 ± 0.018

CTCGGGTATG
switch fluorescence ratio: 0.9791 ± 0.0043

CTCGGTTCTT
switch fluorescence ratio: 0.975 ± 0.019

CTCGTAATCT
switch fluorescence ratio: 1.571 ± 0.007

CTCGTAGGGA
switch fluorescence ratio: 1.01 ± 0.027

CTCGTTGCTT
switch fluorescence ratio: 1.03 ± 0.037

CTCGTTTTGA
switch fluorescence ratio: 0.975 ± 0.023

CTCTACGCCG
switch fluorescence ratio: 0.9875 ± 0.0053

CTCTATCAAT
switch fluorescence ratio: 1.254 ± 0.0064

CTCTCAAATG
switch fluorescence ratio: 1.03 ± 0.045

CTCTCGGCCG
switch fluorescence ratio: 1.03 ± 0.12

CTCTCTAGCT
switch fluorescence ratio: 1.035 ± 0.01

CTCTGAGGGG
switch fluorescence ratio: 1.16 ± 0.1

CTCTGCTCGC
switch fluorescence ratio: 4.15 ± 0.55

CTCTGGGCGG
switch fluorescence ratio: 0.988 ± 0.039

CTCTGGGGGC
switch fluorescence ratio: 1.1 ± 0.062

CTCTGTACAG
switch fluorescence ratio: 1.01 ± 0.018

CTGAAGGCCC
switch fluorescence ratio: 1.02 ± 0.019

CTGACAGATT
switch fluorescence ratio: 1.11 ± 0.12

CTGACGAAGG
switch fluorescence ratio: 1.05 ± 0.029

CTGACGGATT
switch fluorescence ratio: 1.2 ± 0.054

CTGACGTAAG
switch fluorescence ratio: 1.26 ± 0.29

CTGAGAACTT
switch fluorescence ratio: 0.983 ± 0.055

CTGAGAGTAC
switch fluorescence ratio: 1.05 ± 0.07

CTGAGAGTAT
switch fluorescence ratio: 1 ± 0.025

CTGAGGCACG
switch fluorescence ratio: 1.09 ± 0.068

CTGAGGGAGA
switch fluorescence ratio: 1.04 ± 0.03

CTGAGGGGT
switch fluorescence ratio: 1.05 ± 0.037

CTGAGGGTAT
switch fluorescence ratio: 1.006 ± 0.0098

CTGAGTAGTT
switch fluorescence ratio: 1.01 ± 0.018

CTGAGTATAG
switch fluorescence ratio: 1.01 ± 0.023

CTGAGTCAAT
switch fluorescence ratio: 2.23 ± 0.042

CTGAGTCGGA
switch fluorescence ratio: 0.983 ± 0.033

CTGAGTGATG
switch fluorescence ratio: 1.01 ± 0.02

CTGAGTTGGG
switch fluorescence ratio: 0.9793 ± 0.0042

CTGATAGGGA
switch fluorescence ratio: 1.01 ± 0.019

CTGATATGCG
switch fluorescence ratio: 0.997 ± 0.023

CTGATGTCTA
switch fluorescence ratio: 0.977 ± 0.022

CTGATTAGGA
switch fluorescence ratio: 0.989 ± 0.017

CTGCAATAGA
switch fluorescence ratio: 4.41 ± 0.16

CTGCATAGGT
switch fluorescence ratio: 1.31 ± 0.38

CTGCATCAGT
switch fluorescence ratio: 1.04 ± 0.011

CTGCGCAAGG
switch fluorescence ratio: 6.27 ± 0.014

CTGCGGTAAA
switch fluorescence ratio: 0.96953 ± 0.00082

CTGCTCTGTG
switch fluorescence ratio: 0.968 ± 0.014

CTGCTGGGGT
switch fluorescence ratio: 1.04 ± 0.018

CTGGAAAACG
switch fluorescence ratio: 1.008 ± 0.0046

CTGGAAAGGG
switch fluorescence ratio: 0.96 ± 0.019

CTGGAAGGTG
switch fluorescence ratio: 1.811 ± 0.017

CTGGACCGGC
switch fluorescence ratio: 0.967 ± 0.014

CTGGAGGATA
switch fluorescence ratio: 1.12 ± 0.014

CTGGAGGGGG
switch fluorescence ratio: 1.01 ± 0.032

CTGGATAGAA
switch fluorescence ratio: 1.01 ± 0.033

CTGGATGGTG
switch fluorescence ratio: 0.98 ± 0.051

CTGGCAACGA
switch fluorescence ratio: 1.06 ± 0.013

CTGGCACGGA
switch fluorescence ratio: 1 ± 0.063

CTGGCATGGT
switch fluorescence ratio: 1 ± 0.011

CTGGCATTTC
switch fluorescence ratio: 1.37 ± 0.047

CTGGCCGTTT
switch fluorescence ratio: 1.016 ± 0.01

CTGGCTAGGT
switch fluorescence ratio: 0.988 ± 0.057

CTGGGAACGG
switch fluorescence ratio: 0.965 ± 0.052

CTGGGAGATG
switch fluorescence ratio: 0.99088 ± 0.00019

CTGGGAGCAC
switch fluorescence ratio: 1.89 ± 0.15

CTGGGATTAT
switch fluorescence ratio: 0.9755 ± 0.0074

CTGGGCAGAG
switch fluorescence ratio: 1.02 ± 0.043

CTGGGCGGGG
switch fluorescence ratio: 1.01 ± 0.026

CTGGGGAGGG
switch fluorescence ratio: 1 ± 0.048

CTGGGGATTA
switch fluorescence ratio: 0.972 ± 0.031

CTGGGGGAAT
switch fluorescence ratio: 1.01 ± 0.013

CTGGGGGGGC
switch fluorescence ratio: 1.01 ± 0.043

CTGGGGTATG
switch fluorescence ratio: 0.985 ± 0.028

CTGGGGTTGC
switch fluorescence ratio: 0.96 ± 0.03

CTGGGGTTTG
switch fluorescence ratio: 0.956 ± 0.019

CTGGGTGTAT
switch fluorescence ratio: 0.984 ± 0.063

CTGGGTTGGG
switch fluorescence ratio: 1.01 ± 0.043

CTGGGTTGGT
switch fluorescence ratio: 0.972 ± 0.024

CTGGGTTTGT
switch fluorescence ratio: 0.981 ± 0.016

CTGGTATAGA
switch fluorescence ratio: 1 ± 0.046

CTGGTATTCT
switch fluorescence ratio: 0.996 ± 0.037

Reference: the supplement of paper PMC10126150
